# Laboratory results published in patent US20170015720A1 (published 2017).
# T1: CLDN6 (Claudin-6) peptide on HLA-A*02:01 (human)
# T1 peptide: ALFGLLVYL
# T2: CLDN6 (Claudin-6) peptide on HLA-A*02:01 (human)
# T2 peptide: QILGVVLTL
# B1: TCRCD8-mC16#1 (TCR, V domains shown)
# Valpha: AQSVTQPDARVTVSEGASLQLRCKYSYFGTPYLFWYVQYPRQGLQLLLKYYPGDPVVQGVNGFEAEFSKSNSSFHLRKASVHWSDWAVYFCAVSMSSGTYQRFGTGTKLQVVP
# Vbeta: DMKVTQMPRYLIKRMGENVLLECGQDMSHETMYWYRQDPGLGLQLIYISYDVDSNSEGDIPKGYRVSRKKREHFSLILDSAKTNQTSVYFCASSSQNQDTQYFGPGTRLLVL
# B2: TCRCD8-mC16#14 (TCR, V domains shown)
# Valpha: GDQVEQSPSALSLHEGTGSALRCNFTTTMRAVQWFRKNSRGSLINLFYLASGTKENGRLKSAFDSKERYSTLHIRDAQLEDSGTYFCAAEGGGNYKPTFGKGTSLVVHP
# Vbeta: AQTIHQWPVAEIKAVGSPLSLGCTIKGKSSPNLYWYWQATGGTLQQLFYSITVGQVESVVQLNLSASRPKDDQFILSTEKLLLSHSGFYLCAWSPPINTEVFFGKGTRLTVV
# B3: TCRCD8-mC16#18 (TCR, V domains shown)
# Valpha: GDSVTQTEGPVTVSESESLIINCTYSATSIAYPNLFWYVRYPGEGLQLLLKVITAGQKGSSRGFEATYNKETTSFHLQKASVQESDSAVYYCALGETGSFNKLTFGAGTRLAVCP
# Vbeta: NSKVIQTPRYLVKGQGQKAKMRCIPEKGHPVVFWYQQNKNNEFKFLINFQNQEVLQQIDMTEKRFSAECPSNSPCSLEIQSSEAGDSALYLCASSLGIYEQYFGPGTRLTVL
# B4: TCRCD8-mC16#8 (TCR, V domains shown)
# Valpha: AQKVTQTQTSISVVEKTTVTMDCVYETRDSSYFLFWYKQTASGEIVFLIRQDSYKKENATVGHYSLNFQKPKSSIGLIITATQIEDSAVYFCAMREAANSGTYQRFGTGTKLQVVP
# Vbeta: DPKIIQKPKYLVAVTGSEKILICEQYLGHNAMYWYRQSAKKPLEFMFSYSYQKLMDNQTASSRFQPQSSKKNHLDLQITALKPDDSATYFCASSQQNSGNTLYFGEGSRLIVV
# B5: TCRCD8-mC16#2 (TCR, V domains shown)
# Valpha: GDSVTQTEGQVTVSESKSLIINCTYSATSIGYPNLFWYVRYPGEGLQLLLKVITAGQKGSSRGFEATYNKEATSFHLQKASVQESDSAVYYCALNNQGKLIFGQGTKLSIKP
# Vbeta: EAAVTQSPRNKVAVTGGKVTLSCNQTNNHNNMYWYRQDTGHGLRLIHYSYGAGSTEKGDIPDGYKASRPSQENFSLILELATPSQTSVYFCASGGDSQNTLYFGAGTRLSVL
# B6: TCRCD8-mC16#12 (TCR, V domains shown)
# Valpha: GEQVEQRPPHLSVREGDSAVITCTYTDPNSYYFFWYKQEPGASLQLLMKVFSSTEINEGQGFTVLLNKKDKRLSLNLTAAHPGDSAAYFCAVESSSFSKLVFGQGTSLSVVP
# Vbeta: NSKVIQTPRYLVKGQGQKAKMRCIPEKGHPVVFWYQQNKNNEFKFLINFQNQEVLQQIDMTEKRFSAECPSNSPCSLEIQSSEAGDSALYLCASSLTGGAQDTQYFGPGTRLLVL
# B7: TCRCD8-mC16#7 (TCR, V domains shown)
# Valpha: GDSVTQTEGQVALSEEDFLTIHCNYSASGYPALFWYVQYPGEGPQFLFRASRDKEKGSSRGFEATYDKGTTSFHLRKASVQESDSAVYYCALGNNYAQGLTFGLGTRVSVFP
# Vbeta: EAAVTQSPRSKVAVTGGKVTLSCHQTNNHDYMYWYRQDTGHGLRLIHYSYVADSTEKGDIPDGYKASRPSQENFSLILELASLSQTAVYFCASSTGNERLFFGHGTKLSVL
# Target: T1, CLDN6 (Claudin-6) peptide on HLA-A*02:01
# Assay: killing
row,Binder,binding result
1,B1,recognises
2,B2,recognises
3,B3,recognises
4,B4,recognises
5,B5,recognises
6,B6,recognises

# Target: T2, CLDN6 (Claudin-6) peptide on HLA-A*02:01
# Assay: cytokine release
row,binding result,Binder
1,recognises,B7
